The results in this text go back to paper PMC5391958, “New function of aldoxime dehydratase: Redox catalysis and the formation of an expected product” (PLoS ONE, 2017).

Holding throughout (test): purified protein
Holding throughout (type): biochemical, Pseudomonas chlororaphis

For series [1], the system named is T1, CCn1c(=NN=c2sc3cc(S(=O)(=O)O)ccc3n2CC)sc2cc(S(=O)(=O)O)ccc21.
T1 construct: recombinant from pET-oxdA (mutants in pET-24a(+)), E. coli BL21-CodonPlus(DE3)-RIL, purified heme enzyme; Mr 40,127; no tag mentioned
To be noted: apparent.

In a further series the test system is T2, COc1ccccc1O.
T2 construct: recombinant from pET-oxdA (mutants in pET-24a(+)), E. coli BL21-CodonPlus(DE3)-RIL, purified heme enzyme; Mr 40,127; no tag mentioned
The following applies: apparent.

Substrate in series [2]: CCn1c(=NN=c2sc3cc(S(=O)(=O)O)ccc3n2CC)sc2cc(S(=O)(=O)O)ccc21
To be noted: apparent, 25 mM H2O2, 100 mM potassium phosphate pH 7.0, 30°C.

Substrate in series [3]: COc1ccccc1O
To be noted: apparent, 100 mM H2O2, 100 mM potassium phosphate pH 7.0, 30°C.

Where [4] appears, read: 10 mM H2O2, 100 mM potassium phosphate pH 7.0, 30°C.
[5] abbreviates: 25 mM H2O2, 100 mM potassium phosphate pH 7.0, 30°C.
Where [6] appears, read: 100 mM H2O2, 100 mM potassium phosphate pH 7.0, 30°C.

With “OxdA(WT); aldoxime dehydratase (OxdA) (Pseudomonas chlororaphis subsp. chlororaphis; H320A)”, in series [1] (setting [4]), the Km (commonly the concentration of substrate that gives half-maximal velocity) stood at 210 ± 30 µM; the Vmax (commonly the top rate of the reaction or transport when substrate is in excess) was 1.3 µmol/min/mg; the kcat (usually the number of substrate molecules converted per active site and unit of time at saturation) was found to be 0.85 ± 0.07 s⁻¹; the kcat/Km (usually the turnover number divided by the Michaelis constant) came to 4000 M⁻¹ s⁻¹. Also, in the series with COc1ccccc1O (setting [5]), the Km stood at 840 ± 170 µM, the Vmax was 1.2 µmol/min/mg, the kcat is 0.81 ± 0.05 s⁻¹ and the kcat/Km is 970 M⁻¹ s⁻¹.
As to “OxdA(WT); aldoxime dehydratase (OxdA) (Pseudomonas chlororaphis subsp. chlororaphis; H320D)”, in series [1] (setting [5]), the Km is 120 ± 20 µM, the Vmax came out at 33 µmol/min/mg, the kcat is 22 ± 1 s⁻¹ and the kcat/Km stood at 190000 M⁻¹ s⁻¹. In the series with COc1ccccc1O (setting [6]), the Km turned out to be 1000 ± 400 µM, the Vmax came to 50 µmol/min/mg, the kcat worked out at 33 ± 3 s⁻¹ and the kcat/Km worked out at 32000 M⁻¹ s⁻¹.

B1: OxdA(WT); aldoxime dehydratase (OxdA) (Pseudomonas chlororaphis subsp. chlororaphis) (protein)
chain: MESAIDTHLKCPRTLSRRVPEEYQPPFPMWVARADEQLQQVVMGYLGVQYRGEAQREAALQAMRHIVSSFSLPDGPQTHDLTHHTDSSGFDNLMVVGYWKDPAAHCRWLRSAEVNDWWTSQDRLGEGLGYFREISAPRAEQFETLYAFQDNLPGVGAVMDSTSGEIEEHGYWGSMRDRFPISQTDWMKPTNELQVVAGDPAKGGRVVIMGHDNIALIRSGQDWADAEAEERSLYLDEILPTLQDGMDFLRDNGQPLGCYSNRFVRNIDLDGNFLDVSYNIGHWRSLEKLERWAESHPTHLRIFVTFFRVAAGLKKLRLYHEVSVSDAKSQVFEYINCHPHTGMLRDAVVAPT
notes: recombinant from pET-oxdA (mutants in pET-24a(+)), E. coli BL21-CodonPlus(DE3)-RIL, purified heme enzyme; Mr 40,127; no tag mentioned
With B1, in “purified protein [2]”, the Km is 210 ± 40 µM, the Vmax worked out at 3.4 µmol/min/mg, the kcat was determined as 2.3 ± 0.1 s⁻¹ and the kcat/Km is 11000 M⁻¹ s⁻¹. In “purified protein [3]”, the Km amounted to 26 ± 10 µM, the Vmax was found to be 20 µmol/min/mg, the kcat is 14 ± 1 s⁻¹ and the kcat/Km turned out to be 530000 M⁻¹ s⁻¹.
